Experimental data as given in the supplement of paper PMC12667976.
± gives the standard error.

B1: library; numbered along this chain (parent)
chain: MATDAALRRLLRLHRTEIAVAVDSAFPLLHALADHDVVPEDKFQETLHLKEKEGCPQAFHALLSWLLTQDSTAILDFWRVLFKDYNLERYGRLQPILDSFPKDVDLSQPRKGRKPPAVPKALVPPPRLPTKRKASEEARAAAPAALTPRGTASPGSQLKAKPPKKPESSAEQQRLPLGNGIQTMSASVQRAVAMSSGDVPGARGAVEGILIQQVFESGGSKKCIQVGGEFYTPSKFEDSGSGKNKARSSSGPKPLVRAKGAQGAAPGGGEARLGQQGSVPAPLALPSDPQLHQKNEDECAVCRDGGELICCDGCPRAFHLACLSPPLREIPSGTWRCSSCLQATVQEVQPRAEEPRPQEPPVETPLPPGLRSAGEEVRGPPGEPLAGMDTTLVYKHLPAPPSAAPLPGLDSSALHPLLCVGPEGQQNLAPGARCGVCGDGTDVLRCTHCAAAFHWRCHFPAGTSRPGTGLRCRSCSGDVTPAPVEGVLAPSPARLAPGPAKDDTASHEPALHRDDLESLLSEHTFDGILQWAIQSMARPAAPFPS

Variants of: B1
Test: AIRE transcriptional activation functional score (insulin promoter-GFP; nonsense median 0, synonymous median 1) (normalised score); higher = higher AIRE activity (more reporter activation)
Conditions: with insulin promoter-GFP reporter in HEK293
Protocol: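 Deep mutational scan of full-length human AIRE (codon-optimized cDNA, DT-POPCode NNN libraries over three regions) integrated at a Bxb1 landing pad in HEK293 cells carrying an insulin core promoter-GFP reporter at a Flp-In site. Cells were sorted for the top 10% GFP about 14 days after transfection. Variant frequency log-ratios (select vs non-select, TileSeq) were rescaled so that the nonsense median is 0 and the synonymous median is 1, then averaged over biological replicates.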

AIRE transcriptional activation functional score: each site, then its substitutions
L210: F 1.01 ± 0.14; M 0.6 ± 0.11; I 0.93 ± 0.09; R 0.504 ± 0.38; W 0.57 ± 0.062; H 0.71 ± 0.062; C 0.0167 ± 0.071; Q 0.0497 ± 0.33; S 0.327 ± 0.13; V 0.768 ± 0.24; A 0.581 ± 0.49; E -0.0363 ± 0.075; P 0.65 ± 0.069; G 0.615 ± 0.35; Y 0.854 ± 1.2
I211: S 0.773 ± 0.41; F 0.181 ± 0.26; E -0.399 ± 0.12; G 0.694 ± 0.11; K 0.0368 ± 0.087; P -0.156 ± 0.096; R 0.0828 ± 0.12; L 0.428 ± 0.43; V 1.15 ± 0.18; M 0.504 ± 0.89; W 0.83 ± 0.065; Y 1.04 ± 0.15; D 0.837 ± 0.1; A -0.0822 ± 0.079; C 0.481 ± 0.047
I209: G 0.579 ± 0.18; A 0.165 ± 0.097; M 0.79 ± 0.098; Y 0.98 ± 0.43; D 0.64 ± 0.12; K 0.159 ± 0.16; C -0.0153 ± 0.21; S 0.203 ± 0.18; W 0.784 ± 0.11; V 0.66 ± 0.12; F 0.905 ± 0.16; R 0.917 ± 0.066; P 0.35 ± 0.05; N 0.657 ± 0.3; E 0.5 ± 0.23; T 0.1 ± 0.39; L 0.758 ± 0.24
D198: Y 0.99 ± 0.059; N 1.09 ± 0.14; Q 0.627 ± 0.15; G 1.08 ± 0.24; P 0.58 ± 0.15; A 1.03 ± 0.37; L 0.549 ± 0.26; M 1.02 ± 0.086; F 0.583 ± 0.26; T 1.51 ± 0.21; I 0.948 ± 0.15; V 0.978 ± 0.15; C 0.704 ± 0.16; H 0.856 ± 0.32; R 0.663 ± 0.23; K 0.684 ± 0.19; W -0.417 ± 0.22; E 1.2 ± 0.13; S 1.19 ± 0.26
S196: V 1.27 ± 0.15; I 0.678 ± 0.17; P 0.792 ± 0.17; K 0.809 ± 0.15; F 0.117 ± 0.21; E 1.06 ± 0.28; C 1.24 ± 0.029; D 0.944 ± 0.13; G 0.938 ± 0.23; N 0.962 ± 0.096; H 1.01 ± 0.3; M 0.982 ± 0.072; L 0.512 ± 0.15; Y 0.776 ± 0.11; Q 1.11 ± 0.19; R 1.16 ± 0.17; W 0.394 ± 0.073; T 0.82 ± 0.29; A 0.621 ± 0.19
P200: F 0.777 ± 0.045; D 0.545 ± 0.11; H 1.08 ± 0.036; S 1.06 ± 0.18; Q 1.18 ± 0.25; M 1.52 ± 0.087; K 0.571 ± 0.29; T 0.911 ± 0.43; L 1.12 ± 0.2; A 0.713 ± 0.27; C 1.43 ± 0.034; V 0.795 ± 0.26; N 1.12 ± 0.082; Y 0.0754 ± 0.17; R 0.99 ± 0.34; I 0.675 ± 0.44; G 0.879 ± 0.49
G204: H 1.43 ± 0.35; Y 0.0127 ± 0.5; N 0.413 ± 0.31; D 0.621 ± 0.36; W 0.133 ± 0.075; P 1.08 ± 0.32; I 0.113 ± 0.17; R 1.32 ± 0.17; C 0.575 ± 0.088; V 0.123 ± 0.41; T 1 ± 0.53; E 0.847 ± 0.05; Q 0.897 ± 0.17; K 0.976 ± 0.28; S 0.807 ± 0.19; L 0.339 ± 0.34; A 1.42 ± 0.21; F -0.0648 ± 0.27
Q213: F -0.348 ± 0.053; L 0.173 ± 0.27; K 1.02 ± 0.019; G 0.977 ± 0.42; E 0.718 ± 0.36; M -0.306 ± 0.13; C 0.354 ± 0.19; H 1.15 ± 0.16; A 0.437 ± 0.074; I -0.822 ± 0.11
G197: H 0.619 ± 0.079; T 0.444 ± 0.2; E 0.192 ± 0.079; Q 0.484 ± 0.34; S 1.12 ± 0.23; M 0.448 ± 0.058; P 1.23 ± 0.3; V 1.14 ± 0.14; A 0.912 ± 0.25; D 0.624 ± 0.1; C 1.17 ± 0.069; F 0.852 ± 0.32; I 1.09 ± 0.18; Y 0.74 ± 0.054; W 0.323 ± 0.063; N 1.26 ± 0.45; L 1.06 ± 0.39; R 1.01 ± 0.3; K 0.734 ± 0.044
R203: K 0.243 ± 0.17; Q 1.13 ± 0.046; C 1.82 ± 0.066; F 0.572 ± 0.21; Y 0.581 ± 0.13; W 0.289 ± 0.037; S 0.794 ± 0.14; I 1.2 ± 0.34; E -0.0204 ± 0.28; H 0.141 ± 0.1; G 0.547 ± 0.25; T 0.744 ± 0.16; L 1.1 ± 0.35; V 1.57 ± 0.24; A 1.19 ± 0.18; P 1.03 ± 0.2; N 0.0951 ± 0.061
G208: C 0.43 ± 0.077; N 0.00613 ± 0.11; E 0.502 ± 0.1; T 0.433 ± 0.44; S 0.651 ± 0.2; M 0.171 ± 0.1; V 0.173 ± 0.17; K 0.899 ± 0.23; R 0.0966 ± 0.19; F -0.178 ± 0.25; W 0.199 ± 0.079; Y -0.0457 ± 0.088; D 0.296 ± 0.12; P 0.201 ± 0.22; L 0.332 ± 0.35; H -0.0252 ± 0.11; Q 1.23 ± 0.12; I -0.141 ± 0.15; A 0.173 ± 0.2
A202: T 0.777 ± 0.24; D 0.687 ± 0.19; W 0.488 ± 0.049; E 0.791 ± 0.25; I 0.93 ± 0.25; N 1.59 ± 0.25; R 1.08 ± 0.33; M 1.19 ± 0.086; L 0.939 ± 0.17; S 0.848 ± 0.25; H 1 ± 0.39; C 1.39 ± 0.17; G 0.818 ± 0.18; V 1.11 ± 0.082; Q 0.415 ± 0.33; P 0.867 ± 0.21; Y 1.13 ± 0.13; K 0.112 ± 0.15; F 0.397 ± 0.12
A205: V 0.34 ± 0.11; K 1.17 ± 0.11; I -0.0126 ± 0.15; Y 0.153 ± 0.56; Q 0.529 ± 0.048; N 0.648 ± 0.55; D 0.746 ± 0.27; G 0.764 ± 0.2; W -0.461 ± 0.063; M -0.0564 ± 0.17; R 0.318 ± 0.23; P 0.728 ± 0.16; H 1.58 ± 0.18; F 0.213 ± 0.12; S 1.09 ± 0.23; E 0.647 ± 0.071; C 1 ± 0.082; T 1.19 ± 0.24; L 0.428 ± 0.34
E207: L 0.143 ± 0.19; R 0.167 ± 0.16; M -0.394 ± 0.12; K 0.169 ± 0.094; S 0.372 ± 0.32; T 0.3 ± 0.44; P 0.476 ± 0.2; F 0.67 ± 0.11; D 0.788 ± 0.12; G 1.11 ± 0.21; I 0.19 ± 0.4; N 0.371 ± 0.19; W -0.268 ± 0.039; Y 0.0192 ± 0.34; Q 0.672 ± 0.052; H 0.756 ± 0.28; V -0.0618 ± 0.09; C 0.532 ± 0.32; A -0.0187 ± 0.22
S195: W -0.0899 ± 0.062; M 0.346 ± 0.035; I 0.0828 ± 0.16; Q 0.659 ± 0.17; N 0.649 ± 0.43; P 0.83 ± 0.26; H 0.996 ± 0.13; G 0.859 ± 0.19; E 0.862 ± 0.12; R 1.13 ± 0.14; F 0.0295 ± 0.044; K 0.873 ± 0.23; Y 0.427 ± 0.11; V 0.475 ± 0.15; C 0.945 ± 0.052; T 1.31 ± 0.091; D 0.8 ± 0.11; L 0.116 ± 0.12; A 1.31 ± 0.2
V206: K 0.691 ± 0.28; Q 0.0809 ± 0.14; C 0.542 ± 0.22; N 0.529 ± 0.24; E 0.273 ± 0.073; R 0.478 ± 0.33; G 0.631 ± 0.19; M 0.51 ± 0.084; A 0.817 ± 0.31; D 0.39 ± 0.25; S 0.691 ± 0.27; W 0.352 ± 0.03; P 0.762 ± 0.22; I 1.26 ± 0.28; F 0.751 ± 0.04; L 1.1 ± 0.28; T 0.68 ± 0.2; H 0.927 ± 0.24; Y 0.936 ± 0.25
V199: I 1.37 ± 0.24; D 0.863 ± 0.13; E 0.905 ± 0.22; W 0.623 ± 0.032; S 0.671 ± 0.35; L 0.982 ± 0.37; Y 1.4 ± 0.091; F 1.24 ± 0.24; G 1.09 ± 0.3; H 0.599 ± 0.63; Q 0.755 ± 0.36; P 0.723 ± 0.5; T 0.462 ± 0.32; N 0.886 ± 0.05; M 1.18 ± 0.14; A 0.731 ± 0.43; K 0.754 ± 0.12; R 0.735 ± 0.3; C 0.807 ± 0.35
G201: E 0.791 ± 0.087; I 1.23 ± 0.22; L 1.32 ± 0.22; N 1.01 ± 0.12; H 1.02 ± 0.23; D 0.481 ± 0.047; A 0.802 ± 0.15; W 0.489 ± 0.033; T 0.924 ± 0.23; K 0.778 ± 0.27; P 0.598 ± 0.15; M 1.67 ± 0.086; F 1.02 ± 0.2; R 0.837 ± 0.16; Q 1.05 ± 0.17; S 0.809 ± 0.35; C 1.03 ± 0.031; Y 1.17 ± 0.025; V 0.941 ± 0.22
Q212: K 1.04 ± 0.026; A -0.0175 ± 0.1; E 0.507 ± 0.2; F 0.392 ± 0.063; L -0.00712 ± 0.26; D -0.139 ± 0.13; W -0.0246 ± 0.17; P 0.358 ± 0.29; C 1.01 ± 0.12; S 1.14 ± 0.32; G 0.371 ± 0.2; R 1.09 ± 0.32; T 0.447 ± 0.065; I -0.568 ± 0.044; V -0.424 ± 0.34; H 1.68 ± 0.18
